Measurements from patent publication US20240075157A1.

How the values were obtained:
[1] = target: cynomolgus FcγRI (cyno FcγR1) (cynomolgus); assay: BLI, His-cyno FcR1
hFcγR2B (human) [2] = target: hFcγR2B (human) (UniProt P31994); assay: BLI, Hu Fc2B
hFcγR2A 167H (human) [3] = target: hFcγR2A 167H (human) (UniProt P12318); assay: BLI, Hu Fc2A 167H
[4] = target: human FcγR1 (hFcγR1) (human) (UniProt P12314); assay: BLI, Hu Fc1
hFcγR2A 167R (human) [5] = target: hFcγR2A 167R (human) (UniProt P12318); assay: BLI, Hu Fc2A 167R
Hu Fc3A 176F = assay: BLI, Hu Fc3A 176F
hFcγR3A 176V (human) = hFcγR3A 176V (human) (UniProt P08637); assay: BLI, Hu Fc3A 176V
hFcγR2A 167R (human) [6] = target: hFcγR2A 167R (human) (UniProt P12318); assay: BLI, Bio-hFcR2A 167R
hFcγR2A 167H (human) [7] = target: hFcγR2A 167H (human) (UniProt P12318); assay: BLI, Bio hFcR2A 167H
[8] = target: human FcγR1 (hFcγR1) (human) (UniProt P12314); assay: BLI, Bio-hFcR1
hFcγR2B (human) [9] = target: hFcγR2B (human) (UniProt P31994); assay: BLI, Bio-hFcR2B
[10] = target: human FcγR1 (hFcγR1) (human) (UniProt P12314); assay: BLI, His-hFcR1
hFcγR3B (human) [11] = target: hFcγR3B (human) (UniProt O75015); assay: BLI, FcR3B, 600nM IgG
hFcγR2A 167R (human) [12] = target: hFcγR2A 167R (human) (UniProt P12318); assay: BLI, FcR2A 167R, 600nM IgG
[13] = target: human FcγR1 (hFcγR1) (human) (UniProt P12314); assay: BLI, FcR1, 10nM IgG
[14] = target: human FcγR1 (hFcγR1) (human) (UniProt P12314); assay: BLI, FcR1, 50nM IgG
hFcγR3B (human) [15] = target: hFcγR3B (human) (UniProt O75015); assay: BLI, FcR3B, 450nM IgG
hFcγR2A 167H (human) [16] = target: hFcγR2A 167H (human) (UniProt P12318); assay: BLI, FcR2A 167H, 450nM IgG
hFcγR2B (human) [17] = target: hFcγR2B (human) (UniProt P31994); assay: BLI, FcR2B, 600nM IgG
hFcγR2B (human) [18] = target: hFcγR2B (human) (UniProt P31994); assay: BLI, FcR2B, 450nM IgG
hFcγR2A 167R (human) [19] = target: hFcγR2A 167R (human) (UniProt P12318); assay: BLI, FcR2A 167R, 450nM IgG
hFcγR2A 167H (human) [20] = target: hFcγR2A 167H (human) (UniProt P12318); assay: BLI, FcR2A 167H, 600nM IgG
[21] = target: human FcγR1 (hFcγR1) (human) (UniProt P12314); assay: BLI, FcR1, 25nM IgG

Sequence of hFcγR2A 167R (human) (P12318 36-218 H167R): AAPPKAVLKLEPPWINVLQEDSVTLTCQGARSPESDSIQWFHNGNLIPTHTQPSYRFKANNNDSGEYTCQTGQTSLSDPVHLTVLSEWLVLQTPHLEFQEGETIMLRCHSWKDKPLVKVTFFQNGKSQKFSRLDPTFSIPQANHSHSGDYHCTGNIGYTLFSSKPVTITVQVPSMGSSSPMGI
Sequence of cynomolgus FcγRI (cyno FcγR1) (cynomolgus) (A0A2K5 entry or part of it limits assumed): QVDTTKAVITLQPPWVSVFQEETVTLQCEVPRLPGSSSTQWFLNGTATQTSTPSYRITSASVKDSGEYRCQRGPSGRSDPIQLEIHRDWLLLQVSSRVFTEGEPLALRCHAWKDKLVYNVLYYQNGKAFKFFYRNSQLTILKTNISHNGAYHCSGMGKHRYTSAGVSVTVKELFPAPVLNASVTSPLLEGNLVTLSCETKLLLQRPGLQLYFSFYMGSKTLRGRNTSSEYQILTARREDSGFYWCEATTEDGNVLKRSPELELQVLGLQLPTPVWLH
Sequence of hFcγR2A 167H (human) (P12318 36-218): as the sequence (P12318 36-218 H167R) above, with R132H counted along it
Sequence of Hu Fc3A 176F (chain, as listed by the source limits assumed): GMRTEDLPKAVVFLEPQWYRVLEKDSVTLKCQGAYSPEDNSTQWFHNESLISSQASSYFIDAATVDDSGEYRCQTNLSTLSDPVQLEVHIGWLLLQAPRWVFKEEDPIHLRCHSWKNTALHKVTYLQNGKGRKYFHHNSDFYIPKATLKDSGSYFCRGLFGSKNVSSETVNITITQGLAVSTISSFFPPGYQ
Sequence of hFcγR2B (human) (P31994 46-217): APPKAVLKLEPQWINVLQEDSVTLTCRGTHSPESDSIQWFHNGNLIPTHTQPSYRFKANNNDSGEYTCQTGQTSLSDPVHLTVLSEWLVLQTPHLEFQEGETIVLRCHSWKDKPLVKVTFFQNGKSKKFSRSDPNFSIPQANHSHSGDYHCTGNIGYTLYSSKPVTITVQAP
Sequence of human FcγR1 (hFcγR1) (human) (P12314 16-288 limits assumed): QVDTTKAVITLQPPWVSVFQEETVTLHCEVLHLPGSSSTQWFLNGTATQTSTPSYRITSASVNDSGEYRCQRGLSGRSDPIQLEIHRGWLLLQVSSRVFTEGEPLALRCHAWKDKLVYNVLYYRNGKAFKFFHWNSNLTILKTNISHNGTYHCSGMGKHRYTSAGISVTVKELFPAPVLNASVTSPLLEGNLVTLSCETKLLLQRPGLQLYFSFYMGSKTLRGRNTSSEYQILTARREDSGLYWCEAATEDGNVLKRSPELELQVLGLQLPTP
Sequence of hFcγR3A 176V (human) (P08637 17-208 F176V limits assumed): as the sequence (chain, as listed by the source limits assumed) above, with F160V counted along it
Sequence of hFcγR3B (human) (O75015 17-200 limits assumed): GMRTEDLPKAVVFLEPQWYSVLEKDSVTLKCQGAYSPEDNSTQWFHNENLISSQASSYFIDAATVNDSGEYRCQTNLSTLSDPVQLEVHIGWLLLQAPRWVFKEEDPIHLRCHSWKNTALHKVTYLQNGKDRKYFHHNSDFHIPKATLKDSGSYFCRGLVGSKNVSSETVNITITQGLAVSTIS

| Substance | normalized binding response (hFcγR2B (human) [2]) | normalized binding response (hFcγR2A 167H (human) [3]) | normalized binding response [4] | normalized binding response (hFcγR2A 167R (human) [5]) | normalized binding response (Hu Fc3A 176F) | also measured |
| --- | --- | --- | --- | --- | --- | --- |
| Ab2 D265C N297Q (antibody) |  |  |  |  |  | Normalized Response [1]: 7 % of WT |
| Ab2 D265C N297Q H435A (antibody) |  |  |  |  |  | Normalized Response [1]: 7 % of WT |
| Ab5 (anti-CD45 antibody) D265A variant | 2 % of WT | 2 % of WT | 40 % of WT |  |  |  |
| Ab5 (anti-CD45 antibody) D265C.N297A.H435A variant | 2 % of WT |  |  |  |  |  |
| Ab5 (anti-CD45 antibody) LALA variant | 3 % of WT | 4 % of WT |  | 2 % of WT | 19 % of WT | normalized binding response (hFcγR3A 176V (human)): 34 % of WT |
| Ab5 CH2 deleted (antibody) | 1 % of WT |  |  |  |  |  |
| Ab5 D265A.H435A (antibody) | 1 % of WT | 3 % of WT | 35 % of WT |  |  |  |
| Ab5 D265C.H435A (antibody) | 3 % of WT |  | 33 % of WT |  |  |  |
| Ab5 D265C.LALA.P329G.H435A (antibody) |  |  | 4 % of WT |  | 1 % of WT |  |
| Ab5 EPLVLAdelG (antibody) | 10 % of WT | 66 % of WT | 1 % of WT | 15 % of WT | 9 % of WT | normalized binding response (hFcγR3A 176V (human)): 16 % of WT |
| Ab5 LALA.P329G (antibody) |  |  |  | 2 % of WT |  |  |
| Ab5 LALA.P331G (antibody) | 8 % of WT |  |  | 1 % of WT |  |  |
| Isotype WT (antibody) |  |  |  |  |  | Normalized Response (hFcγR2A 167R (human) [6]): 102 % of WT; Normalized Response (hFcγR2A 167H (human) [7]): 90 % of WT; Normalized Response [1]: 82 % of WT; Normalized Response [8]: 91 % of WT; Normalized Response (hFcγR2B (human) [9]): 95 % of WT; Normalized Response [10]: 85 % of WT |
| YTH24.5 (anti-CD45 rIgG2b) (antibody) | 120 % of WT | 150 % of WT | 121 % of WT | 56 % of WT | 62 % of WT |  |
| naked (un-conjugated) antibody (i.e., the isotype control) of FIGS. 1D and 1E |  |  |  |  |  | % Binding vs Wild Type hIgG1 (hFcγR3B (human) [11]): 100%; % Binding vs Wild Type hIgG1 (hFcγR2A 167R (human) [12]): 100%; % Binding vs Wild Type hIgG1 [13]: 100%; % Binding vs Wild Type hIgG1 [14]: 100%; % Binding vs Wild Type hIgG1 (hFcγR3B (human) [15]): 100%; % Binding vs Wild Type hIgG1 (hFcγR2A 167H (human) [16]): 100%; % Binding vs Wild Type hIgG1 (hFcγR2B (human) [17]): 100%; % Binding vs Wild Type hIgG1 (hFcγR2B (human) [18]): 100%; % Binding vs Wild Type hIgG1 (hFcγR2A 167R (human) [19]): 100%; % Binding vs Wild Type hIgG1 (hFcγR2A 167H (human) [20]): 100%; % Binding vs Wild Type hIgG1 [21]: 100% |
| rIgG2a (rat IgG2a isotype control) (antibody) | 8 % of WT | 3 % of WT |  | 74 % of WT | 1 % of WT |  |
